Source: patent US20210317209A1 (University of Texas, published 2021)

Legend:
[1] = biological target: T1, recombinant human CD79b protein (human, UniProt P40259 29-159, limits assumed); experiment: Octet assay
T1 sequence (looked up): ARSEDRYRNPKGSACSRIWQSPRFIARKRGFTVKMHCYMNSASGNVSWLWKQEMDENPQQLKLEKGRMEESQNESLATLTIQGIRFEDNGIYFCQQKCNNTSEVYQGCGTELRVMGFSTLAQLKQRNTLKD

[2] = biological target: T1, recombinant human CD79b protein; experiment: ELISA on recombinant human CD79b protein
[3] = biological target: T1, recombinant human CD79b protein; experiment: column EC50(ng/ml) of the drawn table; the table names no assay, the filing's only titration is the ELISA on recombinant human CD79b protein of FIG. 2B

B1: anti-human CD79b monoclonal antibody clone 14 (IgG1) (antibody, V domains shown)
VH: EVQLQESGPELKKPGETVKISCKASGYTFTDYSMHWVKQAPGKGLKWMGWINTETGEPTYADDFKGRFAFSLETSASTAYLQINNLKNDDTATYFCNMDSWGQGTSVTVSS
VL: QIVLTQSPAIMSASPGEKVTMTCSASSSVSYMWWYHQKPGSSPRLLIFDTSNLASGVPVRFSGSGSGTSYSLTISRMEAEDAATYYCQQWTSYPYTFGGGTKLEIK
notes: Murine hybridoma antibody, IgG1; It was conjugated with a fluorochrome for cell staining
Kd [1]: 1.44 nM | EC50 (read off the curve) [2]: ~0.02 µg/mL | EC50 [3]: 0.0162 µg/mL
